Measurements reported in patent publication US6018029.

Target: IL-1 receptor on the THP-1 human monocyte cell line (human) (UniProt P14778)

IL-6 message level (IL-6 mRNA, Northern blot, arbitrary units) (arbitrary units): 12
Substance: IL-1B (ligand)
